Assay results: US7867732B2, “Isolated polypeptide binding to a sugar chain, polynucleotide encoding the polypeptide and use of the polypeptide and polynucleotide” (National University of Corporation Hiroshima University, priority 2005, dated 2011)
Values after ≈ are worked out from the molar mass of the structure shown.

What was measured:
BML-17 [1] = test: Hemagglutination-inhibition test with BML-17 and trypsin-treated rabbit erythrocytes; format: cell-based, Bryopsis maxima
Experimental: (§1) Hemagglutinating activity was measured using a micro titer method. Twenty-five μl of serially two-fold dilutions of each purified fraction solution adjusted with saline was placed on a micro titer plate. Each diluted solution was supplemented with 25 μl of a 2% suspension of trypsin-treated rabbit erythrocytes and was gently stirred. The mixture was allowed to stand at room temperature for 1.5 hours and agglutination was observed. Agglutination was evaluated with naked eye. Agglutination of 50% or greater percentage of red blood cells was evaluated as positive. Agglutinating activity was given by agglutination titer, i.e., the protein concentration of maximum diluent showing agglutinating activity.
(§2) In this Example, trypsin-treated rabbit red blood cells (TRBC) were used as red blood cells. TRBC was prepared as follows. First, 2 ml of blood was collected from the ear of a rabbit kept in laboratory. The blood sample was washed 3 times with about 50 ml of saline, and was supplemented with 50 ml of saline to obtain a 2% rabbit blood cell suspension. The solution was supplemented with 1/10 volume of 0.5% trypsin in saline, and was allowed to stand at 37° C. for 1.5 hours. The trypsin-treated red blood cells were then washed 3 times with saline, and were supplemented with 45 ml of saline to obtain a 2% suspension of trypsin-treated rabbit erythrocytes (or blood cells) (TRBC).
Hemagglutination-inhibition test was performed according to the following procedure. First, each 25 μl of serially two-fold dilutions of sugar solution in saline was placed on a micro titer plate. The concentration of the original solutions of sugars examined was 100 mM for monosaccharides and oligosaccharides, and 2 mg/ml for glycoproteins. Each solution was mixed with 25 μl of BML-17 solution that had been adjusted to an agglutination titer of 4, and allowed to stand for 1.5 hours at room temperature after gentle stirring. Then, 25 μl of TRBC was added, and the mixture was allowed to stand for 2 hours at room temperature to observe hemagglutination inhibitory capability. The presence or absence of hemagglutination inhibitory capability was determined by naked eye. The test was positive when no hemagglutination occurred in about 100% of the red blood cells.
The hemagglutination inhibition test used D-glucose, D-galactose, D-mannose, N-acetyl-D-glucosamine, N-acetyl-D-galactosamine, D-xylose, L-fucose, fructose, lactose, and raffinose as monosaccharides and oligosaccharides. As glycoproteins, mucin (bovine submaxillary gland) and asialomucin, fetuin (type III, calf serum) and asialofetuin, transferrin (human) and asialotransferrin, α1-acid glycoprotein (human) and alialo-α1-acid glycoprotein, and yeast mannan were used.

BML-17 [2] = test: as above; format: cell-based, Bryopsis maxima; details: gel filtration active fractions instead of purified BML-17
asialotransferrin = target: T1, asialotransferrin (Homo sapiens, UniProt P02787); test: SPR kinetics analysis of affinity between lectins and immobilized asialotransferrin; format: binding
T1 construct: purchased SIGMA
T1 sequence (P02787 20-698): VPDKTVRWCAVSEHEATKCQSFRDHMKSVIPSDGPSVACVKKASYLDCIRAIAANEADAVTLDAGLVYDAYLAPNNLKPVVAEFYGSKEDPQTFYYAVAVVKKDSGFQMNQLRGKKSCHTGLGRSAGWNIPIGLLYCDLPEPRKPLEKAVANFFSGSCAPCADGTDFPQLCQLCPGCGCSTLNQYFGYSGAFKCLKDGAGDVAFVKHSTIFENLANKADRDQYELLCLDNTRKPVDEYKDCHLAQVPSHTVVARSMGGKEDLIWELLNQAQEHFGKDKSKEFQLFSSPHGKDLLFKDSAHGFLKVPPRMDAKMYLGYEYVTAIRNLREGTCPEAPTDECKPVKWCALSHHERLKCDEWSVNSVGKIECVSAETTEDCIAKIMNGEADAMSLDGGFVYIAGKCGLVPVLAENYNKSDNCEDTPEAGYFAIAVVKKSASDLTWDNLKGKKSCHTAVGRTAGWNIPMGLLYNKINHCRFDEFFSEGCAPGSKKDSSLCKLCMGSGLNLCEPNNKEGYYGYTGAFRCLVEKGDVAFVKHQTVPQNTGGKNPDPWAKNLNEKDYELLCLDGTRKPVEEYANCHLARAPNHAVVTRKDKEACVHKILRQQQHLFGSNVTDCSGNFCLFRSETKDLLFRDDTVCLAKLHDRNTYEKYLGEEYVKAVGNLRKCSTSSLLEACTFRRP
Experimental: (§3) Immobilization was performed according to manuals. Specifically, Taka-amylase A was immobilized using a surface thiol coupling method, and asialofetuin, bovine tyroglobulin, antibody, and BSA were immobilized using an amine coupling method. Each sample was immobilized in an amount within a range of 1000 RU to 1500 RU as adjusted by a manual injection method. Purity of the glycoprotein was confirmed by SDS-PAGE or MALDI-TOF-MS.
Affinity between each glycoprotein and each lectin was analyzed by SPR technique. Prior to analysis, preliminary analyses were made to assess analysis methods. […] Approximate KD values were calculated from a resulting sensorgram, and five or more steps of two-fold series dilutions of analyte (lectin) were prepared at target concentrations of 0.1 to 10 KD [M]. An analysis program was created using “Customized Application” according to the manual, and a subtraction function was used in which subtraction was made from flow cells that had glycoproteins immobilized thereon, from among four flow cells in the sensor chip. […] Under this analysis program, each analyte (lectin) solution was flown on the sensor chip at a flow rate of 30 μl/min for 3 minutes, and buffer was flown for 3 minutes to measure the amount of lectin that had bonded/dissociated. […]

[3] = tested on: chicken egg yolk antibody (chicken IgY antibody); test: Search for lectins that bind to chicken egg yolk antibody by SPR (Biacore 2000); format: binding; details: chicken IgY immobilized as ligand
Excerpt: Assessment was made as to affinity of the different types of lectins and chicken egg yolk antibody (chicken IgY antibody). Briefly, using Biacore 2000 (BIACORE) that employs the principle of surface plasmon resonance method (hereinafter, “SPR method”), chicken egg yolk antibodies (chicken IgY antibodies) were immobilized as ligands on a sensor chip, and measurements were made according to manuals using each type of lectin solution as an analyte. The SPR technique allows for measurement of specific interactions between biomolecules both quickly and quantitatively, without labeling the biomolecules. According to this technique, the ligands are immobilized on a surface of the sensor chip, which is then supplemented with a solution of substance (analyte) that acts on the ligand. Slight changes in mass caused by the binding and dissociation of the molecules are then detected as changes in SPR signals. The mass change is represented by resonance unit (RU). One thousand RU is equivalent to a change in reflection angle of 0.1° caused by resonance, and it means that the analyte has bound to the ligand at 1 ng/mm^2. The surface of the sensor chip is coated with dextran, and the ligands are immobilized primarily via carboxyl groups that have been introduced into the dextran.
Note that, as permitted, the lectins tested as analytes were selected to have different sugar binding specificity. The chicken egg yolk antibody (chicken IgY antibodies) tested as ligands were obtained by purification from egg yolk, using Eggcellent Chicken IgY Purification Kit (Pierce Chem. Co. USA).

[4] = tested on: chicken egg yolk antibody (chicken IgY antibody); test: SPR kinetics analysis of affinity between lectins and immobilized chicken egg yolk antibody; format: binding; details: lectin as analyte; for Kd: read-out: Dissociation Constant KD
Experimental: as §3
Affinity between each glycoprotein and each lectin was analyzed by SPR technique. Prior to analysis, preliminary analyses were made to assess analysis methods. […] Approximate KD values were calculated from a resulting sensorgram, and five or more steps of two-fold series dilutions of analyte (lectin) were prepared at target concentrations of 0.1 to 10 KD [M]. An analysis program was created using “Customized Application” according to the manual, and a subtraction function was used in which subtraction was made from flow cells that had glycoproteins immobilized thereon, from among four flow cells in the sensor chip. […] Under this analysis program, each analyte (lectin) solution was flown on the sensor chip at a flow rate of 30 μl/min for 3 minutes, and buffer was flown for 3 minutes to measure the amount of lectin that had bonded/dissociated. Note that, an increase in RU during the time period from 10 seconds before addition of the analyte and to 10 seconds before the end of addition of analyte was given as the amount of bonding. A decrease in RU in the time period from 10 seconds after the addition of buffer to 10 seconds before the end of addition of buffer was given as the amount of dissociation.
Next, the sensor chip was washed with 0.5 M D-mannose, 10 mM glycine-HCl (pH 4.0), 50 mM HCl, and 10 mM NaOH for reproduction. Concerning the resulting sensorgram, the bonding phase and dissociation phase were fitted together with the curve to determine a bonding rate constant Ka, a dissociation rate constant kd, an affinity constant KA, and a dissociation constant KD.
Table 1 represents affinity constants of chicken egg yolk antibody and the various lectins. Table 1 represents bonding rate constant Ka (M^−1s^−1), dissociation rate constant Kd (s^−1), affinity constant KA (M^−1), and dissociation constant KD (M). The greater the affinity constant, the greater the affinity (stronger binding).

bovine tyroglogulin = target: T2, bovine tyroglogulin (Bos taurus, UniProt P01267); test: Elutability of lectins bound to a bovine tyroglobulin-immobilized chip (SPR); format: binding, cattle; details: 0.5 M D-mannose
T2 construct: purchased SIGMA
T2 sequence (P01267 20-2769): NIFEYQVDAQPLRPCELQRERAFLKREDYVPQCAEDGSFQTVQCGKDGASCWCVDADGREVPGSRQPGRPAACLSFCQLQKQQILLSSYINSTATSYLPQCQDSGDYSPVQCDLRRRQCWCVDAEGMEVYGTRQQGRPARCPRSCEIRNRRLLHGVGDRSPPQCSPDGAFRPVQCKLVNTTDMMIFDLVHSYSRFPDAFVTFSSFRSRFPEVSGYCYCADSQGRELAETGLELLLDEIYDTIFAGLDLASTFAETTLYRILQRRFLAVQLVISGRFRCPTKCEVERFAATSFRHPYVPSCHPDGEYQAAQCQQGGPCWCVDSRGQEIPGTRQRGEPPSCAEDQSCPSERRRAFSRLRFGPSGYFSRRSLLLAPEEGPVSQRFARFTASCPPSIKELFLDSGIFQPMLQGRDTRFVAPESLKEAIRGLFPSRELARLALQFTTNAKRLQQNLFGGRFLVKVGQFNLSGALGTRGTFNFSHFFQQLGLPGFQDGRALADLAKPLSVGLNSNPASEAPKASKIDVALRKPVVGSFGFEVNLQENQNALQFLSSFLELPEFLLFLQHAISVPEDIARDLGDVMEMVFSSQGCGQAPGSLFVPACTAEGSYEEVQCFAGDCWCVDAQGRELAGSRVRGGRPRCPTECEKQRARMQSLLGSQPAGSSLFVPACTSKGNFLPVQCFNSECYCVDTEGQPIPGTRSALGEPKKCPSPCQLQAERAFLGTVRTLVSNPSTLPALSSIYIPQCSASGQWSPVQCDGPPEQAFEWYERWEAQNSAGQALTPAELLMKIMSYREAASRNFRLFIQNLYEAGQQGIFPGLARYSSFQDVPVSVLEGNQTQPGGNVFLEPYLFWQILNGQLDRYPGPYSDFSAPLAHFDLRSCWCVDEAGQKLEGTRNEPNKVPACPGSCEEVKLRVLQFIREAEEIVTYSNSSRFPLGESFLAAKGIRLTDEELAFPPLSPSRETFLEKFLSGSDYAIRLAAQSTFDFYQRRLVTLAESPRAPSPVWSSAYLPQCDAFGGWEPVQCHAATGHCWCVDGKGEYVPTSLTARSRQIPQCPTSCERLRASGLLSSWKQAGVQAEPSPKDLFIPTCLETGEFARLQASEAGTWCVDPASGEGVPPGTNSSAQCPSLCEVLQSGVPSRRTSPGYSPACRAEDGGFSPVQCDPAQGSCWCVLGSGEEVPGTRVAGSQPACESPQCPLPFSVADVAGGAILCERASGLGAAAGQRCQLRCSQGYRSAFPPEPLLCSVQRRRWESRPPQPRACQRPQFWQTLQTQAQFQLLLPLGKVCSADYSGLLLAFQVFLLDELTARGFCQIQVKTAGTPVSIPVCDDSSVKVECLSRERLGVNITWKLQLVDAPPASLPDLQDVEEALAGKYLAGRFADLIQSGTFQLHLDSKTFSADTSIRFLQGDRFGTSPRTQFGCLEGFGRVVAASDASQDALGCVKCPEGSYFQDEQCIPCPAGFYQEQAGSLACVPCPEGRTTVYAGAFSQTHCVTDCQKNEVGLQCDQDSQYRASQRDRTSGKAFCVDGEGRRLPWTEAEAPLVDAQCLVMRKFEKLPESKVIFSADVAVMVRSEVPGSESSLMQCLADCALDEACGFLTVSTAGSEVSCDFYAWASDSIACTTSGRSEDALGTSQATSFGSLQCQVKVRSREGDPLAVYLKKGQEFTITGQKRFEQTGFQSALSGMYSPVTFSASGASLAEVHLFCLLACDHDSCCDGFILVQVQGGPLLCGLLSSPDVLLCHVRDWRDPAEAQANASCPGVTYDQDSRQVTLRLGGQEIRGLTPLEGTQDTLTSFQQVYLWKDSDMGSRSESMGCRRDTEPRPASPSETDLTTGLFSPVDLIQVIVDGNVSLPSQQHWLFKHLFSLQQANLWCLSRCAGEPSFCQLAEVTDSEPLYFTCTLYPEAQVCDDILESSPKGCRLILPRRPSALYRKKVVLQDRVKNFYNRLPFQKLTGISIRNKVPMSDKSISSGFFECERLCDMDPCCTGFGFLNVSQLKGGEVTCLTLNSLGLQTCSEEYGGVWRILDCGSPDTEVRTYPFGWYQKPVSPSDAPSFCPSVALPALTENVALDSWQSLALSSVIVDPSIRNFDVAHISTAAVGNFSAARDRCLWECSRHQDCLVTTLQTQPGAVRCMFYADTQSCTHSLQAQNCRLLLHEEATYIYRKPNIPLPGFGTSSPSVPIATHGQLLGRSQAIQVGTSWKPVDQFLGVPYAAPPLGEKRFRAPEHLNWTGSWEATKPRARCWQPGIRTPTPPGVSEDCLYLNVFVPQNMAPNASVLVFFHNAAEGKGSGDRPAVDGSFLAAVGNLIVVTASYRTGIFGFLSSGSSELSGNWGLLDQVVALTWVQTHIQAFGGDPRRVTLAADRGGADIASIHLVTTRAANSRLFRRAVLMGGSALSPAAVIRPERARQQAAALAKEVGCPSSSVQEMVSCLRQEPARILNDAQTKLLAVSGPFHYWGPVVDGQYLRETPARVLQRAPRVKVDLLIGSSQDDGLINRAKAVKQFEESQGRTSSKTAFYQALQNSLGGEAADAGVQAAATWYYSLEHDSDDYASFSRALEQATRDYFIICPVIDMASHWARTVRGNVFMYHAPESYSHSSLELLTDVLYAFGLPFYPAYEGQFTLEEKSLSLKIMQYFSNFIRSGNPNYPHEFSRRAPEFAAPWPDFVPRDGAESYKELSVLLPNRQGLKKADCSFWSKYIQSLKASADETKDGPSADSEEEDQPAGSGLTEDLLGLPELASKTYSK
Excerpt: As in the case of chicken egg yolk antibody, a chip having immobilized thereon bovine tyroglogulin including the high-mannose-type sugar chain and the complex-type sugar chain was used to assess elutability of lectins that had bound to the chip. Note that, tyroglogulin was immobilized in a maximum amount (12,095 RU) on CM5 sensor chip, so as to make it easier to confirm specific binding and elution. Each solution of analyte (lectin) contained in HBS-EP (equilibriated) buffer (BIACORE) at a concentration of 100 μg/ml was flown at a flow rate of 5 μl/min until the amount of bonding reached equilibrium. After washing with HBS-EP buffer and the dissociation has reached equilibrium, 50 μl of 0.5 M D-mannose in the same buffer was injected. Based on the sensorgram, the amount of binding (RU) at the time when 50 μl (5 μg) of analyte (lectin) solution was injected was measured. Then, the amount of residual bonding (RU) of analyte (lectin) after buffer washing and elution with 50 μl of 0.5 M D-mannose was measured. The amount of residual bonding was given by percentage with respect to the maximum amount of bonding.
FIG. 3 represents the amount of residual bonding (%) of analyte (lectin) after the bonding, washing, and elution with 0.5 M D-mannose. FIG. 3 represents relative amounts of lectin that remain bonded to the chip after the dissociation with HBS-EP buffer, and relative amounts of lectin that remain after the elution with 0.5M D-mannose, when the amount of lectin binding to the bovine tyroglobulin immobilized chip exposed to the respective lectins is taken at 100%.

[5] = tested on: trypsin-treated rabbit red blood cell (TRBC); test: Temperature stability and pH stability of BML-17 by agglutinating activity; format: physicochemical; details: 30-minute heat treatment
Experimental: as §1
as §2, with “The trypsin-treated red blood cells were then washed 3 times with saline, and were supplemented with 45 ml of saline to obtain a 2% suspension of trypsin-treated rabbit erythrocytes (or blood cells) (TRBC).” left out
Temperature stability and pH stability of BML-17 were evaluated, using agglutinating activity for trypsin-treated rabbit red blood cell (TRBC) as a measure.

Row | Molecule | Inhibition of agglutinating activity of BML-17 (in words) (BML-17 [1]; TRBC) | Minimum inhibitory concentration (BML-17 [1]; monosaccharides and oligosaccharides, inhibition of BML-17 (agglutination titer 4) agglutination of TRBC) | Inhibition of agglutinating activity of the active fractions obtained by gel filtration (BML-17 [2]) | Affinity Constant KA (asialotransferrin) | Binding to chicken egg yolk antibody (in words) [3] | Affinity Constant KA [4] | Binding Rate Constant ka [4] | Dissociation Rate Constant kd [4] | Kd [4] | Elution of bound lectin with D-mannose (bovine tyroglogulin) | Temperature at which agglutinating activity attenuated [5]
1 | O=C[C@@H](O)[C@@H](O)[C@H](O)[C@H](O)CO [D-Mannose] | inhibited | 12.5 mM (≈ 2250 µg/mL) | not inhibited at all | – | – | – | – | – | – | – | –
2 | Con A: Canavallia ensiformis-derived lectin | – | – | – | 10^6 M^−1 | binding to chicken egg yolk antibody (chicken IgY antibodies) occurs | 1.87e+07 M⁻¹ | 467 M⁻¹ s⁻¹ | 2.49e-05 s⁻¹ | 53.4 nM | partially eluted with D-mannose | –
3 | BML-17: polypeptide (lectin) isolated from seaweed Bryopsis maxima; amino acid sequence of SEQ ID NO: 2 (protein, listed as Bryopsis maxima) VIYQDPVTSDMFAKIPMPGHRGPWYVCHSSGDWSRNEPVFGRCALDAKGMVEAYFPYGGKDIKWPSRWSAVLTTGVYWGKYNDWKQADCNGGQQVVDGGRGAVTVRMDGLSECKGWTTGKSSHNEVWFGCNGKEVGSWLSDTPASDVFPLCQEYGAAVKLVHMGRAFN | – | – | – | – | binding to chicken egg yolk antibody (chicken IgY antibodies) occurs | 8.36e+07 M⁻¹ | 490000 M⁻¹ s⁻¹ | 0.00586 s⁻¹ | 12 nM | specifically and quantitatively eluted with D-mannose | ≥ 60 °C
4 | ESA-2: Eucheuma serra-derived lectin (protein) GRYTVQNQWGGSSAPWNDAGLWILGSRGNQNVMAVDVNSSDGGANLNGTMTYSGEGPIGFKGARRGESNVYDVENQWGGSSAPWHAGGQFVIGSRSGQGVLAVNITSSDGGKTLTGTMTYEREGPIGFKGTQSGGDTYNVENQWGGSSAPWNKAGIWALGDRSGQAMIAMDVSSSDGGKTLEGTMQYKGEGPIGFRGKLSGANNYSVENQWGGSSAPWNAAGDWLIGDRHNQNITAVKVSSDNDGKNLDGTCTYEREGPIGFKGVATS | – | – | – | – | binding to chicken egg yolk antibody (chicken IgY antibodies) occurs | 7.73e+07 M⁻¹ | 352000 M⁻¹ s⁻¹ | 0.00455 s⁻¹ | – | not eluted with D-mannose or any other eluents | –
